Assay results from PMC5575007, “Intermolecular base stacking mediates RNA-RNA interaction in a crystal structure of the RNA chaperone Hfq”.

Experiments:
Hfq102R16A,R17A [1] = biological target: T1, Hfq102R16A,R17A (Escherichia coli, UniProt P0A6X3 1-102, R16A;R17A); assay: EMSA; significant supershift; ITC/FA: 0.25 M NaCl, 20 mM Hepes/NaOH pH 8.0, 5 mM MgCl2, 2% glycerol, 25 C (FA plus 1 g/l BSA); EMSA: 0.25 M NaCl, 50 mM Tris pH 7.5, 10% glycerol, 25 C, 20 nM RNA, 2-200 nM Hfq; details: protein: recombinant; tags: 6xHis-SUMO tag cleaved (SenP2); chain copies: 6; label: 5'-32P
Hfq102 [2] = biological target: T2, Hfq102 (Escherichia coli, UniProt P0A6X3 1-102); assay: AUC; s = 4.5S alone; with OxyS segment ternary s = 5.9S; ITC/FA: 0.25 M NaCl, 20 mM Hepes/NaOH pH 8.0, 5 mM MgCl2, 2% glycerol, 25 C (FA plus 1 g/l BSA); EMSA: 0.25 M NaCl, 50 mM Tris pH 7.5, 10% glycerol, 25 C, 20 nM RNA, 2-200 nM Hfq; details: protein: recombinant; tags: 6xHis-SUMO tag cleaved (SenP2); chain copies: 6; label: 3' Cy3 or Cy5
Hfq102 [3] = biological target: T2, Hfq102; assay: AUC; s = 4.5S alone; with fhlA segment ternary s = 5.9S; ITC/FA: 0.25 M NaCl, 20 mM Hepes/NaOH pH 8.0, 5 mM MgCl2, 2% glycerol, 25 C (FA plus 1 g/l BSA); EMSA: 0.25 M NaCl, 50 mM Tris pH 7.5, 10% glycerol, 25 C, 20 nM RNA, 2-200 nM Hfq; details: protein: recombinant; tags: 6xHis-SUMO tag cleaved (SenP2); chain copies: 6; label: 3' Cy5 or Cy3
Hfq72 [4] = biological target: T3, Hfq72 (Escherichia coli, UniProt P0A6X3 1-72); assay: fluorescence anisotropy; first of two events; 1 g/l BSA; ITC/FA: 0.25 M NaCl, 20 mM Hepes/NaOH pH 8.0, 5 mM MgCl2, 2% glycerol, 25 C (FA plus 1 g/l BSA); EMSA: 0.25 M NaCl, 50 mM Tris pH 7.5, 10% glycerol, 25 C, 20 nM RNA, 2-200 nM Hfq; details: protein: recombinant; tags: 6xHis-SUMO tag cleaved (SenP2); chain copies: 6; label: 3'-ATTO488
Hfq102R16A,R17A [5] = biological target: T1, Hfq102R16A,R17A; assay: EMSA; two shifted bands; ITC/FA: 0.25 M NaCl, 20 mM Hepes/NaOH pH 8.0, 5 mM MgCl2, 2% glycerol, 25 C (FA plus 1 g/l BSA); EMSA: 0.25 M NaCl, 50 mM Tris pH 7.5, 10% glycerol, 25 C, 20 nM RNA, 2-200 nM Hfq; details: protein: recombinant; tags: 6xHis-SUMO tag cleaved (SenP2); chain copies: 6; label: none (AUC, ITC); 5'-32P (EMSA)
Hfq72 [6] = biological target: T3, Hfq72; assay: ITC; first of two events; ITC/FA: 0.25 M NaCl, 20 mM Hepes/NaOH pH 8.0, 5 mM MgCl2, 2% glycerol, 25 C (FA plus 1 g/l BSA); EMSA: 0.25 M NaCl, 50 mM Tris pH 7.5, 10% glycerol, 25 C, 20 nM RNA, 2-200 nM Hfq; details: protein: recombinant; tags: 6xHis-SUMO tag cleaved (SenP2); chain copies: 6; label: none (AUC, ITC); 5'-32P (EMSA)
Hfq72 [7] = biological target: T3, Hfq72; assay: X-ray crystallography; 2.5 A; distal face; (Hfq6:A18)2 dimer by N-site base stacking; pH 4.2; ITC/FA: 0.25 M NaCl, 20 mM Hepes/NaOH pH 8.0, 5 mM MgCl2, 2% glycerol, 25 C (FA plus 1 g/l BSA); EMSA: 0.25 M NaCl, 50 mM Tris pH 7.5, 10% glycerol, 25 C, 20 nM RNA, 2-200 nM Hfq; details: protein: recombinant; tags: 6xHis-SUMO tag cleaved (SenP2); chain copies: 6

## AAGAAGAAGAAGAAGAAGAA (ssRNA) [AAG]
Hfq102R16A,R17A [1]
  binding result: binds

## CUAAUAAAAUUCUACCUAGAAGAACAAAAUGUC (ssRNA) [fhlA (ARN)X segment]
Hfq102 [2]
  binding result: binds

## UCAACUCGAAUAACUAAAGCCAACGUGAAC (ssRNA) [OxyS (ARN)X segment]
Hfq102 [3]
  binding result: binds

## AAAAAAAAAAAAAAAAAAAA (ssRNA) [A20-ATTO488]
Hfq72 [4]
  Kd: 0.4 nM

## AAAAAAAAAAAAAAAAAAAA (ssRNA) [A20]
Hfq102R16A,R17A [5]
  binding result: binds
Hfq72 [6]
  Kd: 1.3 nM

## AAAAAAAAAAAAAAAAAA (ssRNA) [A18 (ordered part of A30)]
Hfq72 [7]
  binding result: binds
